Results reported in US20240279318A1 (NANJING LEGEND BIOTECH, published 2024).
Where a chain is given by its changes, count along the chain named. Values belong to the binder of their own block, whether it stands above or below them.

Columns and labels:
[1] = target: T1, AFP158/HLA-A*02:01 complex (human); experiment: SPR, fold vs AS170036 VL1VH1
T1 construct: flowed as analyte in SPR
Method: (§1) The experiment was carried out as follows. The crude scFv protein were captured onto the sensorchip. Different concentrations (320, 160, 40 nM) of AFP158/HLA-A*02:01 complex flowed over the sensorchip surface, and were allowed to bind the antibody fragment for 100 s followed by injection of the running buffer to allow dissociation of the complex. On-rate (kd) and off-rate (kd) were calculated based on association and dissociation curve, and were used to estimate the equilibrium dissociation constant (KD).

[2] = target: T1, AFP158/HLA-A*02:01 complex; experiment: SPR, crude scFv captured, pMHC analyte;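 note: Peptide-MHC complex at several concentrations passed over captured scFv, association then buffer-driven dissociation, on- and off-rates fitted from the curves and KD estimated from them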
Method: as §1

B1: AS170036 VL1VH1-VHG56F (scFv)
scFv: QSALTQPRSVSGSPGQSVTISCAGTSSDVGSENYVSWYQQHPGKAPKLMIYQVNKRASGVPDRFSGSKSGNTASLTISGLQAEDEADYYCASYRSSDHNIVFGGGTKLTVLGGGGSGGGGSGGGGSEVQLVESGGGLVQPGGSLRLSCAASGFTFSSYAMSWVRQAPGKGLEWVSTINSGTFSPYYADSVKGRFTISRDNSKNTLYLQMNSLRAEDTAVYYCAKNFFDGSWFLGPPAMDYWGQGTLVTVSSHHHHHH
Affinity increase [1]: 2.3 fold
Kd [2]: 98 nM
koff [2]: 0.022 s⁻¹
kon [2]: 230000 M⁻¹ s⁻¹

B3: AS170036 VL1VH1-VHG56N (scFv)
scFv: B1 scFv with F182N
Affinity increase [1]: 2.5 fold
Kd [2]: 92 nM
koff [2]: 0.025 s⁻¹
kon [2]: 270000 M⁻¹ s⁻¹

B5: AS170036 VL1VH1-VHS57M (scFv)
scFv: B1 scFv with F182G, S183M
Affinity increase [1]: 2.7 fold
Kd [2]: 90 nM
koff [2]: 0.025 s⁻¹
kon [2]: 280000 M⁻¹ s⁻¹

B8: AS170036 VL1VH1-VHS57Q (scFv)
scFv: B1 scFv with F182G, S183Q
Affinity increase [1]: 2.4 fold
Kd [2]: 100 nM
koff [2]: 0.022 s⁻¹
kon [2]: 210000 M⁻¹ s⁻¹

B9: AS170036 VL1VH1-VHG108N (scFv)
scFv: B1 scFv with F182G, G234N
Affinity increase [1]: 2 fold
Kd [2]: 140 nM
koff [2]: 0.045 s⁻¹
kon [2]: 330000 M⁻¹ s⁻¹

B11: AS170036 VL1VH1-VLE32W (scFv)
scFv: B1 scFv with E32W, F182G
Affinity increase [1]: 2.4 fold
Kd [2]: 100 nM
koff [2]: 0.016 s⁻¹
kon [2]: 150000 M⁻¹ s⁻¹

B13: AS170036 VL1VH1-VHS57R (scFv)
scFv: B1 scFv with F182G, S183R
Affinity increase [1]: 2.8 fold
Kd [2]: 88 nM
koff [2]: 0.017 s⁻¹
kon [2]: 200000 M⁻¹ s⁻¹

B15: AS170036 VL1VH1-VHG108S (scFv)
scFv: B1 scFv with F182G, G234S
Affinity increase [1]: 2.8 fold
Kd [2]: 96 nM
koff [2]: 0.026 s⁻¹
kon [2]: 270000 M⁻¹ s⁻¹

Stronger by Kd [2], values ahead:

Affinity increase [1]: 4.1 fold
Kd [2]: 56 nM
koff [2]: 0.02 s⁻¹
kon [2]: 350000 M⁻¹ s⁻¹
B2: AS170036 VL1VH1-VHG108E (scFv)
scFv: B1 scFv with F182G, G234E

Affinity increase [1]: 5.5 fold
Kd [2]: 42 nM
koff [2]: 0.012 s⁻¹
kon [2]: 290000 M⁻¹ s⁻¹
B4: AS170036 VL1VH1-VHG108A (scFv)
scFv: B1 scFv with F182G, G234A

Affinity increase [1]: 6.9 fold
Kd [2]: 35 nM
koff [2]: 0.0061 s⁻¹
kon [2]: 170000 M⁻¹ s⁻¹
B6: AS170036 VL1VH1-VHS57H (scFv)
scFv: B1 scFv with F182G, S183H

Affinity increase [1]: 5.5 fold
Kd [2]: 42 nM
koff [2]: 0.015 s⁻¹
kon [2]: 370000 M⁻¹ s⁻¹
B7: AS170036 VL1VH1-VHG108D (scFv)
scFv: B1 scFv with F182G, G234D

Affinity increase [1]: 4.7 fold
Kd [2]: 58 nM
koff [2]: 0.013 s⁻¹
kon [2]: 220000 M⁻¹ s⁻¹
B10: AS170036 VL1VH1-VHG108M (scFv)
scFv: B1 scFv with F182G, G234M

Affinity increase [1]: 6.6 fold
Kd [2]: 35 nM
koff [2]: 0.006 s⁻¹
kon [2]: 170000 M⁻¹ s⁻¹
B12: AS170036 VL1VH1-VHG56Y (scFv)
scFv: B1 scFv with F182Y

Affinity increase [1]: 4.4 fold
Kd [2]: 56 nM
koff [2]: 0.0081 s⁻¹
kon [2]: 150000 M⁻¹ s⁻¹
B14: AS170036 VL1VH1-VHS57K (scFv)
scFv: B1 scFv with F182G, S183K
